Results from PMC8324494 (Cell Reports Medicine, 2021).

What was measured:
[1] = biological target: endogenous GPC2 on high-GPC2-expressing neuroblastoma cell lines (Homo sapiens (Human)., UniProt Q8N158); experiment: flow cytometry on cells
[2] = biological target: murine Gpc2 on the surface of cells (Gpc2 pLenti CMV puro vector) (Mus musculus (Mouse)., UniProt Q8BKV1); experiment: flow cytometry on cells
[3] = biological target: human GPC2 on the surface of cells (GPC2 pLenti CMV puro vector) (Homo sapiens (Human)., UniProt Q8N158); experiment: flow cytometry on cells
Chain of human GPC2 on the surface of cells (GPC2 pLenti CMV puro vector) (Q8N158 24-554): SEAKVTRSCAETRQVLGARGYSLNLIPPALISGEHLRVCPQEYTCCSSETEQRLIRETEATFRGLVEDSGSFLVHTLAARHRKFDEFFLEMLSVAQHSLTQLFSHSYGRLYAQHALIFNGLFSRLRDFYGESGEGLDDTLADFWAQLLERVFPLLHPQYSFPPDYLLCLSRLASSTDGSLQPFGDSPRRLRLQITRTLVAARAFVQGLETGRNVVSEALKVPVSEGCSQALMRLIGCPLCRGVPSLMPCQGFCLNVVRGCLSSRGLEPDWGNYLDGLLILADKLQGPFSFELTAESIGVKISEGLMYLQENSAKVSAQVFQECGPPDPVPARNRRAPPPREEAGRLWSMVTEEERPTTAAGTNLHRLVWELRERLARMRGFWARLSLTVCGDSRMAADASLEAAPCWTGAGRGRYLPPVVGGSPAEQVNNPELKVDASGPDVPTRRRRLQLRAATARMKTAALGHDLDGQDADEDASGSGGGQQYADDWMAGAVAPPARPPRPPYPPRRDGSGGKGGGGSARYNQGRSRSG

[4] = biological target: GPC2 clone of the Membrane Proteome Array (Homo sapiens (Human)., UniProt Q8N158); experiment: flow cytometry on cells
Chain of GPC2 clone of the Membrane Proteome Array (Q8N158 24-554): as above

[5] = biological target: GPC2^24-493 (fully glycanated) (Homo sapiens (Human)., UniProt Q8N158); experiment: BLI
Chain of GPC2^24-493 (fully glycanated) (Q8N158 24-493): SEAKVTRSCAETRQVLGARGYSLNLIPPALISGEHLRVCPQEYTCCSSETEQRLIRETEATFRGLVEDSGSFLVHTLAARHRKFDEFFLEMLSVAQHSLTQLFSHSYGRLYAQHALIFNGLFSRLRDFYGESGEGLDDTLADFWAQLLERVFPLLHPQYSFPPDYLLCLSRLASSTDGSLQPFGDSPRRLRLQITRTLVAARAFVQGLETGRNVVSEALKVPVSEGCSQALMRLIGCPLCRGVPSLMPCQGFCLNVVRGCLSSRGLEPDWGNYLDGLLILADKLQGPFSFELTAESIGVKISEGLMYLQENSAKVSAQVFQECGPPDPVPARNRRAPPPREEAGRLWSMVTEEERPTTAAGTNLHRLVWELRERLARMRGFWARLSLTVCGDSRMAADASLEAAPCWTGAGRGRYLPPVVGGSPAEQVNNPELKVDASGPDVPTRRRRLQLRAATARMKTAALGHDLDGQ

[6] = biological target: GPC2^24-554 (fully glycanated) (Homo sapiens (Human)., UniProt Q8N158); experiment: BLI
Chain of GPC2^24-554 (fully glycanated) (Q8N158 24-554): as the sequence (Q8N158 24-554) above

Measured: binding result

Chain of murine Gpc2 on the surface of cells (Gpc2 pLenti CMV puro vector) (Q8BKV1 22-556): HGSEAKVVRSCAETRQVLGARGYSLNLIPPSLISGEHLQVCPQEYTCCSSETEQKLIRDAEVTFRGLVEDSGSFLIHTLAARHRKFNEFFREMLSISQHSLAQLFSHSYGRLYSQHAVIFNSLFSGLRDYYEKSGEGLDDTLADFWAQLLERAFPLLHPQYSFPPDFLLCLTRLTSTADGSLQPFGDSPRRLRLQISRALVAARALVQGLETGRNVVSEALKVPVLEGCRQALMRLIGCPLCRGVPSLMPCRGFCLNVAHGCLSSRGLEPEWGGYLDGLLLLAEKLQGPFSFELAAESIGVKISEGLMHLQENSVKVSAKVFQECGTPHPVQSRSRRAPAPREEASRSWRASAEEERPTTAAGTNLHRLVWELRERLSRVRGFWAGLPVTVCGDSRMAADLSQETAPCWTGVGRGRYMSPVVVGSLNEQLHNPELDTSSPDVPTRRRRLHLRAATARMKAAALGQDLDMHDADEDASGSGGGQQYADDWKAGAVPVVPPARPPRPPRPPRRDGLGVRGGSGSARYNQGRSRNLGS
Chain of endogenous GPC2 on high-GPC2-expressing neuroblastoma cell lines (Q8N158 24-554): as the sequence (Q8N158 24-554) above

B1: D3-GPC2-IgG1 (fully human GPC2 antibody, full-length human IgG1) (antibody, V domains shown)
VH: EVQLVETGGGVVKPGGSLRLSCAASGFTFSDYYMSWIRQAPGKGLEWVSYISSSGSTIYYADSVKGRFTISRDNSKNTLYLQMNSLRAEDTAVYYCARESGYDYVFDYWGQGTLVAVSS
VL: DIQMTQSPSTLSAFVGDRVTITCRASQSISSWLAWYQQKPGKAPKLLIYAASTLQSGVPSRFSGSGSGTEFTLTISSLQPEDFATYYCQQLNSYPITFGQGTRLEIK
binds: [1] | [2] | [3] | [4]

B2: D3-GPC2 antigen-binding fragment (D3-GPC2-Fab) (Fab, V domains shown)
VH: EVQLVETGGGVVKPGGSLRLSCAASGFTFSDYYMSWIRQAPGKGLEWVSYISSSGSTIYYADSVKGRFTISRDNSKNTLYLQMNSLRAEDTAVYYCARESGYDYVFDYWGQGTLVAVSS
VL: DIQMTQSPSTLSAFVGDRVTITCRASQSISSWLAWYQQKPGKAPKLLIYAASTLQSGVPSRFSGSGSGTEFTLTISSLQPEDFATYYCQQLNSYPITFGQGTRLEIK
binds: [5] | [6]
